In the supplement of paper PMC11246515:
± gives the standard deviation of the averaged measurements.

Assay: total protein half-life in vivo (active degradation + dilution); higher = more stable protein
[1] = E. coli NCM3722 delta-clpP delta-lon delta-hslV, growth: N-lim chemostat, doubling time 6 h
[2] = E. coli NCM3722 delta-clpP, growth: N-lim chemostat, doubling time 6 h
[3] = E. coli NCM3722 delta-hslV, growth: N-lim chemostat, doubling time 6 h
[4] = E. coli NCM3722 delta-smpB, growth: N-lim chemostat, doubling time 6 h
[5] = wild type E. coli NCM3722, growth: C-lim chemostat, doubling time 12 h
[6] = wild type E. coli NCM3722, growth: P-lim chemostat, doubling time 6 h
[7] = wild type E. coli NCM3722, growth: P-lim chemostat, doubling time 12 h
[8] = E. coli NCM3722 delta-lon, growth: N-lim chemostat, doubling time 6 h
[9] = wild type E. coli NCM3722, growth: C-lim chemostat, doubling time 3 h
[10] = wild type E. coli NCM3722, growth: C-lim chemostat, doubling time 6 h
[11] = wild type E. coli NCM3722, growth: N-lim chemostat, doubling time 6 h
[12] = wild type E. coli NCM3722, growth: N-lim chemostat, doubling time 12 h

| Sequence | total protein half-life in vivo [1] [h] | total protein half-life in vivo [2] [h] | total protein half-life in vivo [3] [h] | total protein half-life in vivo [4] [h] | total protein half-life in vivo [5] [h] | total protein half-life in vivo [6] [h] | total protein half-life in vivo [7] [h] | total protein half-life in vivo [8] [h] | total protein half-life in vivo [9] [h] | total protein half-life in vivo [10] [h] | total protein half-life in vivo [11] [h] | total protein half-life in vivo [12] [h] |
| --- | --- | --- | --- | --- | --- | --- | --- | --- | --- | --- | --- | --- |
| MAFKIWQIGLHLQQQEAVAVAIVRGAKECFLQRWWRLPLENDIIKDGRIVDAQQLAKTLLPWSRELPQRHHIMLAFPASRTLQRSFPRPSMSLGEREQTAWLSGTMARELDMDPDSLRFDYSEDSLSPAYNVTAAQSKELATLLTLAERLRVHVSAITPDASALQRFLPFLPSHQQCLAWRDNEQWLWATRYSWGRKLAVGMTSAKELAAALSVDPESVAICGEGGFDPWEAVSVRQPPLPPPGGDFAIALGLALGKAY | 4.83 | 3.81 | 2.84 | 2.82 ± 0.24 | 11.7 ± 1.8 | 3.857 ± 0.0092 | 8.02 | – | – | – | – | – |
| MLTVIAEIRTRPGQHHRQAVLDQFAKIVPTVLKEEGCHGYAPMVDCAAGVSFQSMAPDSIVMIEQWESIAHLEAHLQTPHMKAYSEAVKGDVLEMNIRILQPGI [P0ADU2] | 5.001 ± 0.017 | – | 4.57 ± 0.38 | 4.72 ± 0.06 | 10.4 ± 0.39 | 5.84 ± 0.12 | 11.6 ± 0.82 | 5.31 ± 0.5 | 3.14 ± 0.34 | 5.35 ± 0.099 | 4.36 ± 0.28 | 7 ± 0.33 |
| MKIYLVGGAVRDALLGLPVKDRDWVVVGSTPQEMLDAGYQQVGRDFPVFLHPQTHEEYALARTERKSGSGYTGFTCYAAPDVTLEDDLKRRDLTINALAQDDNGEIIDPYNGLGDLQNRLLRHVSPAFGEDPLRVLRVARFAARYAHLGFRIADETLALMREMTHAGELEHLTPERVWKETESALTTRNPQVFFQVLRDCGALRVLFPEIDALFGVPAPAKWHPEIDTGIHTLMTLSMAAMLSPQVDVRFATLCHDLGKGLTPPELWPRHHGHGPAGVKLVEQLCQRLRVPNEIRDLARLVAEFHDLIHTFPMLNPKTIVKLFDSIDAWRKPQRVEQLALTSEADVRGRTGFESADYPQGRWLREAWEVAQSVPTKAVVEAGFKGVEIREELTRRRIAAVASWKEQRCPKPE | 4.23 ± 0.88 | 3.75 ± 0.11 | 3.29 ± 0.057 | 3.37 ± 0.045 | 8.37 ± 0.69 | 5.114 ± 0.016 | 9.86 ± 0.35 | 3.79 ± 0.16 | 2.96 ± 0.27 | 5.06 ± 0.79 | 3.48 ± 0.28 | 5.55 ± 0.2 |
| MAGINLNKKLWRIPQQGMVRGVCAGIANYFDVPVKLVRILVVLSIFFGLALFTLVAYIILSFALDPMPDNMAFGEQLPSSSELLDEVDRELAASETRLREMERYVTSDTFTLRSRFRQL [P0AFN2] | 5.469 ± 0.044 | > 8 | 5.48 ± 0.47 | 4.53 ± 0.38 | 6.7 ± 3.6 | 7.55 | 10 ± 0.79 | – | 2.498 ± 0.015 | 3.81 ± 0.91 | 4.862 ± 0.037 | 9.24 ± 0.17 |
| MTDNTYQPAKVWTWDKSAGGAFANINRPVSGPTHEKTLPVGKHPLQLYSLGTPNGQKVTIMLEELLALGVTGAEYDAWLIRIGDGDQFSSGFVEVNPNSKIPALRDHTHNPPIRVFESGSILLYLAEKFGYFLPQDLAKRTETMNWLFWLQGAAPFLGGGFGHFYHYAPVKIEYAINRFTMEAKRLLDVLDKQLAQHKFVAGDEYTIADMAIWPWFGNVVLGGVYDAAEFLDAGSYKHVQRWAKEVGERPAVKRGRIVNRTNGPLNEQLHERHDASDFETNTEDKRQG | 5.11 ± 0.38 | 5.1 ± 0.095 | 4.77 ± 0.093 | 4.78 ± 0.57 | 9.78 ± 2.2 | 5.6 ± 0.21 | 11.8 ± 0.8 | 5.02 ± 0.099 | 3.18 ± 0.21 | 5.63 ± 0.16 | 5.31 ± 0.2 | 9.72 ± 3.6 |
| MIQPISGPPPGQPPGQGDNLPSGTGNQPLSSQQRTSLESLMTKVTSLTQQQRAELWAGIRHDIGLSGDSPLLSRHFPAAEHNLAQRLLAAQKSHSARQLLAQLGEYLRLGNNRQAVTDYIRHNFGQTPLNQLSPEQLKTILTLLQEGKMVIPQPQQREATDRPLLPAEHNALKQLVTKLAAATGEPSKQIWQSMLELSGVKDGELIPAKLFNHLVTWLQARQTLSQQNTPTLESLQMTLKQPLDASELAALSAYIQQKYGLSAQSSLSSAQAEDILNQLYQRRVKGIDPRVMQPLLNPFPPMMDTLQNMATRPALWILLVAIILMLVWLVR | 3.57 ± 0.29 | 3.889 ± 0.021 | 3.71 ± 0.25 | 3.56 ± 0.12 | 6.56 | 3.705 ± 0.012 | 6.51 ± 0.24 | 3.18 ± 0.34 | 2.64 ± 0.22 | 4.57 ± 0.41 | 3.65 ± 0.16 | 5.38 ± 0.4 |
